Measured values reported in the domain aggregation screens of Martell et al. (2025).

Assay: soluble fraction after stress (log2 fold change); higher = more stays soluble; pooled small domains, quantitative proteomics
Details: stress: 50 degC
In short: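 The measure of aggregation propensity here is the base-two logarithm of the fold change in the soluble amount of each protein after stress. A higher value means more of that protein stays in solution. Stress was applied at 50°C to pooled libraries of small protein domains, read out by high-throughput quantitative proteomics.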

“HMTDPVLYEERDDIAIITINRPEKKNTLTDAVIQGIADGIDAATKSADVVAVVLRGAGDTLTAGYDLTA” and “HMAAGELSGEALIALIERHPMALSALATTFGHSESDLRAFVEPLARQGRLRLFESQGTLFVGGIG” are within 0.2 log units of each other in “soluble fraction (log2)” value: -0.132 for the first, -0.022 for the second.

Going from “HMSSGTAYATDAVNVRSGPGTSYTVLGYLSRGEKVTITGTVSNGWTQIQLPGNRLGYVSSAYLSASYPS” to “HMYMLYQQLADSLRDKIYEGTYTFGDKIPSERTLAATFGISHLTVRKALAILEEEGLLDRRQGNGTFVRV”, the “soluble fraction (log2)” value falls from -0.259 to -1.02.

Going from “HMDRQIQITVAENEAGQRLDAFLAAKIPDMSRSYIQKLIEDGLILVNGQSTKGKVKTYSGMNIEVYMPE” to “HMDSHSAESVRQRIKDMIAAEASKSILSDDTIVENLKSEGIEIARRTVAKYRESLNIPSSIQRRRIARSEA”, the “soluble fraction (log2)” value falls from 0.166 to -0.0963.

“HMNNENELSSIISKVLEENPAEKERFLNGEKKLAGFFMGKIMKATKGTADPKKAAQLLNEIL” and “HMSVAVKAPLQGTVMKVNVKPGDTVTKGAPVAVIEALKMENDVPAPQDGVVASVDVKSGDSVKTDQVLLTL” are within 0.2 log units of each other in “soluble fraction (log2)” value: 0.295 for the first, 0.182 for the second.

“HMSVAPISYSQFESYLEQGKVASVAVGQDTIAGRFTAPVDGKSQFVTTIVNPQILDRIDKSGVEITGV” and “HMTNADRFIGEEAMVIKKIDDINNDGQVKIAGQVWSAVSEDKSPLEEGTIVKVIAIRGVKLVVEPVS” are within 0.2 log units of each other in “soluble fraction (log2)” value: 0.176 for the first, 0.0662 for the second.

Compared with “HMAPRASDALTERELDVLRVVADGASVAEAAEMLVVSRETVKKHLGNIYAKLGVHSKMQAVALLREEGV”, “HMLVLAENMDVIFTRRTLDDHVVVDYKTTIGEMVKNDEIKGENMDELISAVEKDGYELVSSTSGEIIFLND” is lower in “soluble fraction (log2)” value: -0.147 for the first, -1.2 for the second.

Going from “HMLVVEPSAELKTIIDKTASFVARNGPEFEARIKNEQNNAKFSFLQPNDPFNPYYRAKIVELGGTV” to “HMTGAEGKLARYLLTVPSGEPLRLSATDLAKRLGISRASLYRAFQALEDARLIRREGKSMYVLDPAGLEGV”, the “soluble fraction (log2)” value falls from 0.0591 to -0.289.

First: HMTIRIPEEEYLTRAKRAAQMTAERGLDALFLFGSEGDFQNVRYFTSVTPIWERLGVVITASGKAAMLTGP
Second: HMFMSDDDIRILVKEWLQSQNRKSYQLAEEIGIRPQTFYAQMSVRKISANTKKALSRIIPGL
The “soluble fraction (log2)” value of the first is higher: -0.0521 for the first, -0.86 for the second.

First: HMGLTRRAQLEVADANLKRLYPGMHQSWVTAIAEYLHSSYWRYINSLEPEYAASIQRVYEQHIDAM
Second: HMDSYADVLSDYRGKYKTNTISGLKGLRDKIREDMLAAADSLDFEKAALLRDEMNDLNKKIELKEKT
The “soluble fraction (log2)” value of the first is lower: 0.0529 for the first, 0.505 for the second.

First: HMFPDLTEDEQLIVDVLQRTGDLQINSLIVEANIPVNKMSEILFELEMKGVIRTLAGGVYQLL
Second: HMANFGSILRNLRISRDITQSELAAKLGVSRSTVGMYETGAREPDFEAMEAIADTFNVDMDYLVGRSQ
The “soluble fraction (log2)” value of the first is lower: -1.46 for the first, -0.28 for the second.

“HMKNTADRVYENLFHMLVSGDYAPGDRIPSEHELKERFNVSRNTIRAALNRMNALGIIETRQGDGTYLKG” and “HMADGEWAEMQRQLTAAGLLVVGRAAQERIQRLSDISPLIEAAQRSNVVMLSERTVDEVLTLVPT” are within 0.2 log units of each other in “soluble fraction (log2)” value: -0.243 for the first, -0.18 for the second.

“HMNPGAYQVKAGEGLIGLSRRYNVPVDVLASVNNLNTTSSLRVGQTITIPTAAQVNRITQQAQ” and “HMGPPLISLDDGLAKGFGVGVGDTLTINILGRRITATIASLREIDWQSLRFDFAVVLSPGVLEGA” are within 0.2 log units of each other in “soluble fraction (log2)” value: 0.287 for the first, 0.0913 for the second.

Going from “HMKTTKESLLEYIQREVFTDSIHKEGLSTNEIADAFQIQRSNVSSLLNTLVKEGKLEKTTGRPVLYRIPEK” to “HMSKLSVSSLSSPEVQNQLKAAGIDVNSRQYQVVMKDMMGALDGRAGYTTVSAIKNRMRQYNADGDY”, the “soluble fraction (log2)” value rises from 0.0655 to 0.474.

Compared with “HMLRMTRNRQKLVEVLMESGRPLSADEIREAAGFASTDLVTVYRNLEAFQSAGLLQRIPLENGSQLFELT”, “HMSSTSTMTVAEATIGRKVKHDKFGEGTIITVADVNGDKKLTIAFNQQGVKMLMLSMAKLEL” is lower in “soluble fraction (log2)” value: -0.478 for the first, -1.03 for the second.

Going from “HMAADRRKAERPLIDGQAVMDRFEVGPGPMVGKALKFLLALKRAEPDLDLAGTEERLDAWWNEQL” to “HMAEQEELDAIRPDLDGQEIMDILGIKPGREVGAARNFLLELRLDEGPLGYDEAVSRLLTWWAERT”, the “soluble fraction (log2)” value falls from 0.262 to -0.13.

Going from “HMVRSLESESVYDRQRAYEIAYQLRTEERPYSFIATQLNKAGLRPQKAARYEWYSVQELLRSA” to “HMNQDQDLSRIKGIGPEMVDRLHAQGVETLEQIAAMQMEQLKKLDQQISGNGKAVREQWAEQAKQLLTT”, the “soluble fraction (log2)” value rises from -0.956 to 0.0638.

First: HMLPKLAEEYAIMEIRGKGENLTAKLINKGGDSFMVRNGTVLQTGHRIDEITQTYVRAEINGMKDYLYFA
Second: HMLDFGQEDSEAVSEIILVLGRYWMDFSHKKYPEAEGSALRHKGISHIFTVLKPYLTSATAQLIEQRLQQ
The “soluble fraction (log2)” value of the first is higher: 0.417 for the first, 0.00235 for the second.

Compared with “HMSDRLRLGRRIRAARLEQNLSQAALAERLGISASYLNLLEHDRRSLTTVLLLKLAQVLGLELRDLAAG”, “HMVVRRLPFGFSKRFGVLVVPGTSNPVELLYREDASMQSLLEARRVVAQPVAFKKTDVESFNAQLARAHEN” is higher in “soluble fraction (log2)” value: -1.99 for the first, -1.23 for the second.

Going from “HMSSFRDISGTVYVKASAANLRSEPNTSSLIVDTLYYGASLQRISTNDIWTKVKTGNGQIGFMDNSLFQT” to “HMSAETREELVGREGVSLTDLRPSGFALFGQEKIDVVSESEFIEEGTSVRIVSVEGSRHIVRAKR”, the “soluble fraction (log2)” value rises from -2.23 to 0.0998.

“HMIAAPFVVKDIRVDGVQPATGEAIISSLPVKVGQTATDADVSNVVRQLFSLNRFQNVQATREGNTLVIKV” and “HMKRIFEKKVVTESLNGLRLDKAAATLFADFSRNELGQWIKDEALLVNGKAKKVKEKVSEGDVLALDVELI” are within 0.2 log units of each other in “soluble fraction (log2)” value: 0.0499 for the first, 0.0881 for the second.

First: HMNANTILNSQRILTQLGFNPGPIDGAFGAKTKGALNAFYTSIGKSYDGLLDSNELVELQKALDVSGLKN
Second: HMASISDRIRLLRAESHMTQEEFGRIFGISKPTVSFYEHGKSVPNDQIKTAIARYFGVSVDYLLGVTD
The “soluble fraction (log2)” value of the first is higher: -0.295 for the first, -1.89 for the second.

“HMTATDRQLQLIAYTAARLMAEQGIADFNAAKRKAIQTLGLPNNAKLPGNADVEAQLRAYQRIF” and “HMLINIKTNSAVNVRSGPGMGFEVVNTYPSGYILQAKEMQKDGGDNVWYKVKDGWLSANYTIDI” are within 0.2 log units of each other in “soluble fraction (log2)” value: -0.133 for the first, -0.198 for the second.

“HMSPTEQEKIGLFIKKLREEKNLTQEAFASLLKTSQSAVARIESGNQNITIEQLMKIGEVLNHNIVSI” and “HMREVVLNRIGSVAVQRATTRTWEEWVVTLDAEGMRGKEHRDVVGHLLRAHELTSWWAQMVSVGYEQSRGQ” are within 0.2 log units of each other in “soluble fraction (log2)” value: 0.0103 for the first, -0.166 for the second.

“HMSDYLGSLSHEEKMIFNHFDEDSSTIENMAKKTELKPELISQIFLNLELRGFLRQTEGGLYEKI” and “HMRRSKQERQQAIKTLISNEQIQRQEDLVRKLNEAGWEVTQATISRDITEMQLVKVPLPTGGFAYAVM” are within 0.2 log units of each other in “soluble fraction (log2)” value: -0.000348 for the first, 0.126 for the second.

First: HMQDNPELVARIEKAAARGTSSMSDWERSFMGSLLDSAKKWGRLTAKQHEVFQRIEKKTDPAHQAAVS
Second: HMTVKVPDLRGKTLAEMQRILDDAGLKYEINDSTFSRTAIPGTVREVIPAPGSEVKLGRILFIAINGF
The “soluble fraction (log2)” value of the first is higher: 0.0476 for the first, -0.914 for the second.

First: HMPTERLSMRRIRELLRLRFEVGLSTRLIATALGISKGAVGDYLQRAQVAGLGWPLPENLNDAALERRLFP
Second: HMENNIPANIKALIISYVNQNYPGAVIHSIERNSNGTYDVEIYYNNREYDLLFDAQGNFISGNVDDQ
The “soluble fraction (log2)” value of the first is lower: -0.681 for the first, 0.0611 for the second.

First: HMENNIRLSVPDTESGQRIDSYLAEQIPGLTRSAVQNLLAEQAVTIAGKAVKKNYKLLGGEDILVQLPEVR
Second: HMVNTYILNNKEYPIEIIRKNNKNTYLRVKEGKIIVTTNYLTSSFTINKLIKDNTSFINKALLKEN
The “soluble fraction (log2)” value of the first is higher: 0.216 for the first, -0.595 for the second.

First: HMDKSNEVLMNHYRKQEINQAKKRLEEEKMSIIQVLQLTNKEVITTDELLEALYISKEQLLDEIINTTQ
Second: HMKTGNPYAQRNTADMYNYGRGIEKDSYLAFVWYFAAYKQGNDNAKPQIDSITASGHLSPNQQLHAKIE
The “soluble fraction (log2)” value of the first is higher: -0.0889 for the first, -0.464 for the second.

Going from “HMGGTFLVRILDPALNIRAQPSLTARINGVIRDKSVYTIVATSFEPKTQITWGKLKSGAGWISIGSKYVKK” to “HMGKVLIYKPNMSVSDVAIRLGISNAEIIKRLMGLGVMTSINQTIDRDTIELVAMDLGFSIEN”, the “soluble fraction (log2)” value rises from -3.52 to -0.656.

First: HMVSSYTMAIQINGKLRATHDFSVDTSQEDIKKIIINLPAIQKYINGVEIKKFIIVPQKIVNIV
Second: HMLKAKKIPVSDLEKFKGIVAEDVVSKAKALILPRGSNLSWLSNVAKKNLIAKLKAEGIEYISVYSS
The “soluble fraction (log2)” value of the first is lower: -2.52 for the first, 0.134 for the second.

Going from “HMHKPLRILVYEELRMLIMTGQIKPGTRMMEIDLAESMGVSRTPVREAIRQLEKDNLVTIEPRRGAYVSD” to “HMSRQAPIGHRIRGRRKDIGMTQNALAKAAGISPSYLNLIEHNRRSIGGGLLMRIAAILDIHPHTL”, the “soluble fraction (log2)” value rises from -2.45 to -2.23.

Compared with “HMTNYSFIVNENFNNKRIDQVVANHYPKISRTKVNKIIKNNLLKLNGSTFNDPSAKVKLGDQIEFENL”, “HMAKVSVNIILKDGVDQTTFVNDVTSNTEVDLKNQLISLPQMVVLSVEEDYINTLKSHSSISILELDE” is lower in “soluble fraction (log2)” value: 0.389 for the first, -0.00499 for the second.

First: HMELKYIDYDEALVVYAKTVTASGGGLSGVKDEGGIRKVLDFVQNDLYYPTFVDKLTYLVFGL
Second: HMSQLLHELLAHVLKDRIISGEWPAGSRIMSEHALQERYGVSRGTVRRALAQLVQEGLLVQRKGKGTFVTR
The “soluble fraction (log2)” value of the first is higher: 0.103 for the first, -1.65 for the second.

Compared with “HMSSYETVTLNGQRYFKYKVKSGEGLYAISRMFSTPIAEIIRHNPSSNAGLKNGQELLIPVN”, “HMRPQIAIDAIQALSLIMRTENKEDPTYLESRRVVSDAVAKRLSLNPTDLNRAWSRAPRDHQIAVLSALTQ” is lower in “soluble fraction (log2)” value: 0.00287 for the first, -0.853 for the second.
